“Also recorded” adds a separate entry of the source.
How the values were obtained:
CCR5 [1] = target: T1, CCR5 (Homo sapiens, UniProt P51681); settings: activated human T cells, cited from earlier work
[2] = in vivo; cited from earlier work
[3] = system: engrafted human cells (CD45+, CD3+); test: Flow cytometry analysis of engrafted human cells in peripheral blood, spleen and bone marrow of NSG mice; assay type: in vivo; settings: for CD45+ cells in peripheral blood at the time of euthanasia: control 64%
Experimental: Peripheral blood (PB), bone marrow (BM), and spleen (SPL) samples were analyzed by flow cytometry. Splenocytes were passed through a […] strainer. Erythrocytes were lysed with ammonium chloride. Cells were washed twice with PBS and stained for 15 min at 4 deg C. in PBS/0.5 mM EDTA/0.5% BSA with the following antibodies: anti-human-CD3-FITC (clone UCHT1, IM1281U), anti-human-CD45-PC7 (clone J.33, 1M3548U), Beckman/Coulter. Samples were analyzed on a Cytomics FC500 Flow Analyzer (Beckman/Coulter).

CCR5 [4] = target: T1, CCR5; settings: CD4+ T cells, cited from earlier work
HIV-1 = settings: at concentrations that do not affect CCR5 chemokine receptor activity; in vitro and hu-PBL-SCID mouse model; cited from earlier work
CCR5 [5] = target: T1, CCR5; set-up: host or cells: CHO-K1; settings: CHO-K1 cells, cited from earlier work
xeno-GVHD in NSG mice = xeno-GVHD in NSG mice engrafted with human bone marrow cells: physical signs, weight, survival
Experimental: Animal experiments were conducted in accordance with the ethical standards and according to national and international guidelines and were approved by the Cleveland Clinic Institutional Animal Care and Use Committee. Male NSG mice, NOD.Cg-Prkdc^scidIl2ry^tm1wjl/SzJ (NOD-scid IL2ry^null, NSG) mice were obtained from the Jackson Laboratory (Bar Harbor, Me., USA), and athymic nude (nu/nu) (Taconic, Hudson, N.Y.) 6-8 wk old were used. Mice were housed in a barrier facility in cages with microisolator lids, autoclaved bedding, and HEPA-filtered air, and maintained under 12:12 light/dark cycles, controlled temperature and humidity. […] Conditioning regimen: Mice received 2.25 Gy total body irradiation via a 137Cs source (Shepherd, Los Angeles Calif.).
Following gamma irradiation (24 h later) mice were engrafted with human BM cells. De-identified human donor cells were obtained by back-flushing filter packs utilized by the Cleveland Clinic BMT program. Fresh (non-frozen) leukocytes were purified by Ficoll-Hypaque gradient centrifugation, washed in phosphate buffered saline (PBS), assessed for viability (ViCell, Beckman Coulter, Brea, Calif.). Human BM leukocytes were injected into the lateral tail vein (10^7 cells/mouse). Mice were monitored for clinical symptoms of GVHD (body posture, activity, fur and skin condition, weight loss) two times/wk. Peripheral blood was monitored weekly for engraftment utilizing saphenous vein venipuncture (50 mL) collected in K-EDTA tubes.
Mice were randomized into control and treatment groups by body weight. PRO 140 was administered on different doses (0.2-2.0 mg/kg) and schedules. The route was always intraperitoneal (i.p.). Control mice received normal human IgG (Sigma Aldrich, St. Louis, Mo.).
Starting with the human dose of PRO 140=5.8 mg/kg×12 (man-to-mouse conversion factor)=69.6 mg/kg mouse dose; average mouse=0.025 kg, therefore dose is 69.6 mg/kg×0.025 kg=1.74 mg (mouse single dose). This was rounded up to 2.0 mg and designated as the “high dose”. A “low dose” (0.2 mg) was also tested. IgG derived from human serum (>95% SDS-PAGE, Sigma, I4506) was used as a non-specific control antibody.
Statistical analysis was performed using GraphPad Prism (GraphPad Software, La Jolla, Calif.). All measures of variance were depicted as standard error of the mean (SEM). Survival was analyzed by the Kaplan-Meier method and Mantel-Cox log-rank test. For other data, two-sided unpaired Students t-test was used.

CCR5 [6] = target: T1, CCR5; test: Tyrosine kinase phosphorylation downstream of CCR5 receptor signaling in T cells in vitro; assay type: cell-based; set-up: tyrosine kinase phosphorylation downstream of CCR5 receptor signaling in T cells in vitro; endogenous in cells; host or cells: T cells
Description: Thus, it is shown that PRO 140's activity as a CCL5 competitive binding inhibitor has a mixed impact on CCL5's ability to participate in downstream activity conventionally associated with the CCR5/CCL5 axis. Further elucidation of the role of PRO 140 and its immunomodulatory effects is the subject of continued investigation.

T1 sequence (P51681 whole entry): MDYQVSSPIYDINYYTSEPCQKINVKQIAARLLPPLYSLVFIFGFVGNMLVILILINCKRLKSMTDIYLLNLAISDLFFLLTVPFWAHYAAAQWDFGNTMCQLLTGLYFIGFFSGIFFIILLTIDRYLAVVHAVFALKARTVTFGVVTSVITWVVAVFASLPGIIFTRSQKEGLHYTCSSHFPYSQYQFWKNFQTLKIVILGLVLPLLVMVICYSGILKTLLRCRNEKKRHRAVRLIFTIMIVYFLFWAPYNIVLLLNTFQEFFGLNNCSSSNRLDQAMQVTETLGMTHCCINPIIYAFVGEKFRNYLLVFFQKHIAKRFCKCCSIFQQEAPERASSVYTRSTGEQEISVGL

Molecule: Cc1nnc(C(C)C)n1C1C[C@H]2CC[C@@H](C1)N2CC[C@H](NC(=O)C1CCC(F)(F)CC1)c1ccccc1 (stereo in doubt) [maraviroc]
- production of TNF-α and IFN-γ (CCR5 [1]; high doses): tends to decrease production of TNF-α and IFN-γ
- CCR5 and CCR2 internalization induced by CCL5 and CCL2 (CCR5 [1]): can block CCR5 and CCR2 internalization processes
- T cell chemotactic activities toward cognate ligands (CCR5 [1]): inhibit T cell chemotactic activities
- incidence of gastrointestinal and liver GVHD [2]: dramatically decreases the incidence of gastrointestinal and liver GVHD

B1: PRO 140: humanized monoclonal antibody to CCR5, humanized version of the murine mAb PA14; competitive inhibitor of CCL5 binding to CCR5 receptor (antibody, chains of the INN, looked up, V domains shown)
VH: EVQLVESGGGLVKPGGSLRLSCAASGYTFSNYWIGWVRQAPGKGLEWIGDIYPGGNYIRNNEKFKDKTTLSADTSKNTAYLQMNSLKTEDTAVYYCGSSFGSNYVFAWFTYWGQGTLVTVSS
VL: DIVMTQSPLSLPVTPGEPASISCRSSQRLLSSYGHTYLHWYLQKPGQSPQLLIYEVSNRFSGVPDRFSGSGSGTDFTLKISRVEAEDVGVYYCSQSTHVPLTFGQGTKVEIK
- effect on engraftment ([3]; bone marrow at the time of euthanasia): did not inhibit engraftment; also recorded: did not negatively affect engraftment
- CD45+ cells in bone marrow versus control at the time of euthanasia ([3]; compared with control IgG mice): no differences
- CD45+ cells in spleen at the time of euthanasia ([3]; control 58-59%, p<0.05): 41%
- CD45+ cells in peripheral blood at the time of euthanasia ([3]; p<0.05): 46%
- CD45+ cells in peripheral blood at the time of euthanasia ([3]; p<0.05, listed as Pro 140): 45%
- mouse hematopoietic cells (mouse CD45) in bone marrow ([3]; high dose cohort, Day 75): 28%
- mouse hematopoietic cells (mouse CD45) in peripheral blood ([3]; high dose cohort, Day 75): 14.9%
- mature T-cells (CD45/CD3) in bone marrow at 54 days ([3]; high dose cohort, FIG. 6 BM panel E2 quadrant, control 40.2%): 26.4%
- mature T-cells (CD45/CD3) in peripheral blood at 54 days ([3]; high dose cohort, FIG. 6 PB panel E2 quadrant, control 63.2%): 49.8%
- human CD45+ cells in peripheral blood versus control at day 50 ([3]; high dose, compared with control IgG mice): significantly lower
- human CD45+ cells in peripheral circulation at 50 days ([3]; high dose, control 62%, p=0.034): 43%
- delay until the same percentage of CD45+ engraftment as control ([3]; low dose (0.2 mg), peripheral blood, P<0.01): approximately 20 days
- divergence in engraftment from control, start ([3]; low dose cohort (0.2 mg)): 15 days
- effect on cAMP levels, added alone (CCR5 [4]; PRO 140 alone): does not affect cAMP levels
- effect on cAMP levels, administered with CCL5 (CCR5 [4]; with CCL5): does diminish the effect of CCL5 on cAMP levels
- HIV-1 entry and replication (HIV-1): potently inhibits HIV-1 entry and replication
- effect on chemotaxis, alone (CCR5 [5]; PRO 140 alone): does not affect chemotaxis
- effect on CCL5-induced chemotaxis (CCR5 [5]; with CCL5): does reduce CCL5-induced chemotaxis
- survival (Kaplan-Meier), low dose (xeno-GVHD in NSG mice; PRO 140 0.2 mg i.p., BM from donor, control animals all dead by 31 days): ≤ 54 days
- start of physical signs of GvHD and weight loss, low dose (xeno-GVHD in NSG mice; PRO 140 0.2 mg i.p., control mice starting at day 20): 25 to 28 days
- mean weight at about 20 days (xeno-GVHD in NSG mice; PRO 140 2.0 mg i.p. twice/wk started day 1, about 20 days after engraftment): about 23.0 gm
- mean weight at about 52 days (xeno-GVHD in NSG mice; PRO 140 2.0 mg i.p. twice/wk started day 1, about 52 days after engraftment): about 23.6 gm
- survival (Kaplan-Meier), high dose (xeno-GVHD in NSG mice; PRO 140 2.0 mg i.p. twice/wk started day 1, sacrificed at 70 days, control IgG animals all dead by 56 days): ≥ 70 days
- physical signs / symptoms of GVHD (xeno-GVHD in NSG mice; high dose (2.0 mg i.p. twice/wk), 70-day study period): did not exhibit any symptoms associated with GVHD; also recorded: no physical signs of GVHD
- weight course (xeno-GVHD in NSG mice; high dose (2.0 mg i.p. twice/wk), control mice lost weight): gained weight; also recorded: continued to gain weight
- survival (xeno-GVHD in NSG mice; past 70 days, xeno-transplant animal model, NSG mice upon HSC engraftment): 100%
- effect on tyrosine kinase phosphorylation, alone (CCR5 [6]; PRO 140 alone): does not affect tyrosine kinase phosphorylation
- effect on phosphorylation of tyrosine kinases by CCL5 (CCR5 [6]; with CCL5): does not inhibit phosphorylation of such kinases by CCL5
